Results from PMC3959648, “Screening protein – Single stranded RNA complexes by NMR spectroscopy for structure determination☆”.

Legend:
Details in all cases: protein: recombinant; tags: N-terminal His tag removed by TEV
[1] = molecular target: T1, Sam68 KH (UniProt Q07666 150-260); experiment: NMR 15N-1H HSQC CSP; T-STAR KH: 10 mM Tris-HCl pH 7 (also given as pH 6.5, 50 mM NaCl, 30 C); Sam68 KH: 20 mM sodium phosphate pH 7.0, 50 mM NaCl, 20 C; about 0.2 mM protein, protein:RNA 1:0.5 and 1:1
[2] = molecular target: T2, T-STAR KH (UniProt O75525 50-160); experiment: NMR TOCSY; 100% D2O; chemical exchange, possibly multiple registers; T-STAR KH: 10 mM Tris-HCl pH 7 (also given as pH 6.5, 50 mM NaCl, 30 C); Sam68 KH: 20 mM sodium phosphate pH 7.0, 50 mM NaCl, 20 C; about 0.2 mM protein, protein:RNA 1:0.5 and 1:1
T2 sequence: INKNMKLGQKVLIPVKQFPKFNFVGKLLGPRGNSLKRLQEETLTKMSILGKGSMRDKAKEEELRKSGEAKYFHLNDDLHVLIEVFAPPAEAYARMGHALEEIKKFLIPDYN

[3] = molecular target: T3, T-STAR KH-QUA2 (UniProt O75525 50-183); experiment: NMR 15N-1H HSQC CSP; T-STAR KH: 10 mM Tris-HCl pH 7 (also given as pH 6.5, 50 mM NaCl, 30 C); Sam68 KH: 20 mM sodium phosphate pH 7.0, 50 mM NaCl, 20 C; about 0.2 mM protein, protein:RNA 1:0.5 and 1:1
T3 sequence: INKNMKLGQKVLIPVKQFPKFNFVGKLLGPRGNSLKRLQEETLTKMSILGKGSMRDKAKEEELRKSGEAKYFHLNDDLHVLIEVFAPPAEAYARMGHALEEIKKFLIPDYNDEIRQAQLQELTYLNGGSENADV

[4] = molecular target: T2, T-STAR KH; experiment: NMR 15N-1H HSQC CSP; fast exchange; T-STAR KH: 10 mM Tris-HCl pH 7 (also given as pH 6.5, 50 mM NaCl, 30 C); Sam68 KH: 20 mM sodium phosphate pH 7.0, 50 mM NaCl, 20 C; about 0.2 mM protein, protein:RNA 1:0.5 and 1:1
[5] = molecular target: T2, T-STAR KH; experiment: NMR 15N-1H HSQC CSP; fast to intermediate exchange; higher affinity than AAAUAA; T-STAR KH: 10 mM Tris-HCl pH 7 (also given as pH 6.5, 50 mM NaCl, 30 C); Sam68 KH: 20 mM sodium phosphate pH 7.0, 50 mM NaCl, 20 C; about 0.2 mM protein, protein:RNA 1:0.5 and 1:1
[6] = molecular target: T1, Sam68 KH; experiment: NMR 15N-1H HSQC CSP; slow exchange; strong affinity; T-STAR KH: 10 mM Tris-HCl pH 7 (also given as pH 6.5, 50 mM NaCl, 30 C); Sam68 KH: 20 mM sodium phosphate pH 7.0, 50 mM NaCl, 20 C; about 0.2 mM protein, protein:RNA 1:0.5 and 1:1

T1 sequence (Q07666 150-260): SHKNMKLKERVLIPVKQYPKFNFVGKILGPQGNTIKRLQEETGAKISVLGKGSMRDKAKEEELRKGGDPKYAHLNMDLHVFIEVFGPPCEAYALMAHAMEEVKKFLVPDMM

UUUUUU (ssRNA) [UUUUUU (polyU 6mer)]
binding result [1]: no binding

UAAAUAAUU (ssRNA)
binding result [2]: binds

AAAUAA (ssRNA)
binding result [3]: binds | binding result [4]: binds

AAAAAA (ssRNA) [AAAAAA (polyA 6mer)]
binding result [5]: binds

AUUAAA (ssRNA)
binding result [6]: binds

UAAAAUUUUU (ssRNA)
binding result [2]: binds
